Experimental data reported in US20130108642A1 (LOS ANGELES BIOMEDICAL RESEARCH INSTITUTE AT HARBOR UCLA …, published 2013).

Tests used:
recombinant human Grp78 = target: T1, recombinant human Grp78 (human, UniProt P11021 19-654); assay: FAR Western blot with recombinant human Grp78 and anti-Grp78 Ab; bands identified by MALDI-TOF-MS/MS
T1 construct: Soluble probe in the FAR Western blot, detected with anti-Grp78 Ab; also called rGrp78; Grp78p

[1] = target: T2, endothelial cell surface GRP78 (human umbilical vein endothelial cells) (human, UniProt P11021 19-654); assay: pull-down of biotin-labeled endothelial cell surface proteins by yeast cells, immunoblot with anti-GRP78 Ab
T2 construct: whole, on cells; In the adherence and endocytosis assays it is on intact endothelial cells; also called endothelial cell GRP78; Glucose Regulated Protein 78
T2 sequence (P11021 19-654): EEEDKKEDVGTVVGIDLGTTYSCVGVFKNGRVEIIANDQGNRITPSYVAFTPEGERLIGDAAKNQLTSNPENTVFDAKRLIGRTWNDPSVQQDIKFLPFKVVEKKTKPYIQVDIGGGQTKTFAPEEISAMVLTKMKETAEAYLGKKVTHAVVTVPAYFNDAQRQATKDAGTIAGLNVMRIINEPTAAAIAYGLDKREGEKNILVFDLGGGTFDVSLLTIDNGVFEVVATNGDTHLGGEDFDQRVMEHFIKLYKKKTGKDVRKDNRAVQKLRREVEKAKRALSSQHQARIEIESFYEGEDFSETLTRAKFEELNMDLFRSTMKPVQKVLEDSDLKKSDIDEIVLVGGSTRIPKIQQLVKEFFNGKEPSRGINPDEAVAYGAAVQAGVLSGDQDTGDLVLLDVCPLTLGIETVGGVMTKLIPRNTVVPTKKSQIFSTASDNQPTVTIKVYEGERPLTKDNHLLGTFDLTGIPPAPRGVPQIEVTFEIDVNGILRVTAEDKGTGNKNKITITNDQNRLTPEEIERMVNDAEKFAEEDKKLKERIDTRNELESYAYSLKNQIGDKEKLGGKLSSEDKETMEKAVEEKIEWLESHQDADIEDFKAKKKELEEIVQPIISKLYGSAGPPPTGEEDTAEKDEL

T1 sequence (P11021 19-654 limits assumed): as the sequence (P11021 19-654) above

| Binder | binding result (recombinant human Grp78) | binding result [1] |
| --- | --- | --- |
| CotH2 (RO3G-08029), native protein in cell wall material from supernatants of R. oryzae germling protoplasts (other, Protein on the FAR Western blot, identified by MALDI-TOF-MS/MS of excised bands; also called R. oryzae ligand; R. oryzae surface protein) ASVQFNLIAPSATDVKVSVNGQQVALTASDPNVPYFTGSAEVGGTEESFERSLAGITNSTFNDFYNRPVTYANLPQLPWPIENDPQWTRKGKKAEIFDDNYIPSVFFHGDDSQVQDLVKNVPKDKVTGTLTFIGSNYVHSFANVSFGIHGAGKKHNNAKQSWKWTLSGTDTMGNRNHFKLRHMEEDPTQIRERLYADILHAMGTYANETTMVRLFINGQGFGTFNMLDDITEFSYINAMFYGGNPPATLGPLFDGASGADFIYHPGNLDGYSSWKPNKDNANGEGYEAFDPLCKAWNETDYTDNTAIANFEKMFDTEHFLRFMVIEYLTAHWDGYWMGQTNDGAYRDPSDNNKWYFLDQDFDATFGVNLDVPENKDFISVSYKDFPSRYPAGVMANGLLQNADKKAKFEQYLTETVRVLFNNVTLTNRVLAIHNFLSPDLEWDRSIVQQSPGTNFGWTFEQTSQNLWQGVSAPNNNGGGAEWGLVEYIAAKSQAMAKEFNITIVSEPVGPPAANGTATSTNDGGNTHTAAGESKPASSSESSGSKIASQSVS | binds |  |
| CotH3 (RO3G-11882), native protein in cell wall material from supernatants of R. oryzae germling protoplasts (other, Protein on the FAR Western blot, identified by MALDI-TOF-MS/MS of excised bands; also called R. oryzae ligand; R. oryzae surface protein) ASIKFNVIAPNATDVKVSVNGQQVTLTASDANVPYFTGSAEVGASKTYKYVAGGTEESFDRSLDGITNSTLNDFYNRPVTYANLPQLPWPIEKDPQWTRSGSKADIFDDNYIPSVFFHGDDSQVQNVVKNVPADRISGTLTFIGSNYVYSFQNVSFGIHGAGKKHNNAKQSWNWILSGSDTMGNRNFFKLRHMEEDPTQIRERLYSDILHAMGTYANDATMVRLFINNQGFGTFNMLDDITQFSYINAKFYNGKPPATLGPLYDGASGADFLYHPGNLDGYSSWVANTANPNGEAYEALDPLCKAWNETTYTDNTAIANFEKMFDLDRFMRFMVIEYLTADWDGYWMGQTNDGAYRDPTDNNKWYFLDQDFDGTFGVNLAAPEGNAFLDVSYKDFPSRYPGAVMINNLLQNADKKATFEKYLTETVRVLFNNVTLTNRVLALHNFLLPDLEWDRSIVQQSPGINFGWTFDQVTQNLWQGVTAPNNNGGGAAFGLVEYIAAKAQAVAKEFNISIVSQPVGPPSANGTTAAAPAPAAGNSTGKGGNQSISSSASSNKTSAQSTS | binds |  |
| CotH1 (RO3G-05018) from R. oryzae, on the cell surface of S. cerevisiae (other, also called S. cerevisiae expressing CotH1) AKVSFKVIAPDAKNRVHVNINGVLVELKASDPDVPYYTGFAELKHGQSYNYVVDGNAEPFKRLLNGSSTKNEFFNRPVTYATNIPELPSILTEGSWTRGDTSNPIWDSNYVPSIFVTGNPREMNELIENVKKNTYKTKITFIGPETINTFEGCTLGLHKPGRKHNDAKQSWIWALPEGQFMANRNWFKIRHMEEDPTQLREKLYADILRKMGTYANEANMVRFFINKEGMGIFNMLDDVIMYSYINAMFYHGDTPEQLGGLYDGASGASFNFPGDFDSFIPNVESPLDQDAIEPFSKAFTSIDFLEDEQVKTIGKYFDYDQFLRFMVMEFLTGDWDGYWQEQTNDGAYIDINDHNKIYYLGQDFDATFGVNLEQKREFVNVSYTEYPKLFPGGVLINRLLQNPGVKKTFENYLKITVQEIFNNATLGPYVTARHEFLAPDLQWDRSIKQRSPGNIFGWTFEQTYENLFEGVTAPGKNSGGADWGLLEWVAAKEKAVKSYLSSSEAADAATVTQVPEAPGTDGTPSESTAWPHANTRFRQAEASNTHKIGTSSPSNFIVKIKQGTVSS |  | no binding |
